Measurements: US10047341B2, “Generation of keratinocytes from pluripotent stem cells and maintenance of keratinocyte cultures” (FUJIFILM Cellular Dynamics, Inc., priority 2014, dated 2018)

How the values were obtained:
human ESC/iPSCs = assay: iKCs derivation from human ESC/iPSCs: critical medium components; type: cell-based; details: Passage 0, Day 14 differentiation culture, anti-K14 immunofluorescence
[1] = system: primary human keratinocytes; assay: Long-term culture of primary keratinocytes (population doubling); details: niacinamide 3 mM, BMP4 0.5 ng/mL as components of KCM4
Procedure: Keratinocytes were maintained in the indicated medium and passaged every 4-5 days (at ˜80% confluence). For passage, keratinocytes were incubated with a 0.1% Trypsin in Versene solution at 37° C. for 5 minutes. The trypsin was neutralized with 0.5 mg/mL of trypsin inhibitor. The cells were centrifuged at 1200 rpm for 4 min. Cells were counted with a Cellometer (Nexcelom). Cells (25,000-50,000) were plated per well of 6-well plates in the indicated keratinocyte culture media. Media was changed every other day.
Cells were maintained by serial passage at ˜80% confluence until senescence. The total number of cell doublings for each passage was calculated using the following formula: 3.32 log(N/No). Where No refers to the number of cells plated at the beginning of each passage and N is the number of cells recovered at the end of each passage.

B1: FGF7: fibroblast growth factor FGF7 (protein, UniProt P21781 32-194, looked up)
Fibroblast growth factor 7: CNDMTPEQMATNVNCSSPERHTRSYDYMEGGDIRVRRLFCRTQWYLRIDKRGKVKGTQEMKNNYNIMEIRTVAVGIVAIKGVESEFYLAMNKEGKLYAKKECNEDCNFKELILENHYNTYASAKWTHNGGEMFVALNQKGIPVRGKKTKKEQKTAHFLPMAIT
- K14 expression with different fibroblast growth factors (human ESC/iPSCs): did not promote homogeneous K14 expression

B2: BMP4: growth factor BMP4, neuronal fate suppressor, medium supplement (protein, UniProt P12644 293-408, looked up)
Bone morphogenetic protein 4: SPKHHSQRARKKNKNCRRHSLYVDFSDVGWNDWIVAPPGYQAFYCHGDCPFPLADHLNSTNHAIVQTLVNSVNSSIPKACCVPTELSAISMLYLDEYDKVVLKNYQEMVVEGCGCR
- life span and stemness of primary keratinocytes in culture [1]: maintained the stemness of primary keratinocyte stem cells in culture
- life span and stemness of primary keratinocytes in culture ([1]; listed as BMP-4): extend the life span of primary keratinocytes in culture
